From paper PMC7031342, “REEP5 depletion causes sarco-endoplasmic reticulum vacuolization and cardiac functional defects” (Nature Communications, 2020)

B1: REEP5-EYFP (natural protein)
chain: not shown
notes: Receptor expression-enhancing protein 5 (REEP5), human (NM_005669.4), parent of the EYFP tagged truncation mutants; source: C2C12 myoblasts, transfected, in lysate
B2: endogenous REEP5 (HEK293) (natural protein)
chain: not shown
notes: Receptor expression-enhancing protein 5 (REEP5), endogenous in HEK293 cells; source: endogenous, HEK293 lysate
B3: Δ1–36 REEP5-EYFP (domain or fragment)
chain: not shown
notes: REEP5, human (NM_005669.4), lacking residues 1-36; source: C2C12 myoblasts, transfected, in lysate
B4: CnVA-tagged (StrepII-6xHis, 3xFlag) REEP5 (natural protein)
chain: not shown
notes: Receptor expression-enhancing protein 5 (REEP5), human, subcloned from NM_005669.4 into pLD-puro-CnVA; also called CnVA-REEP5; source: HEK293, transfected, in lysate; nickel-His purification
B5: REEP5-V5-6xHis (natural protein)
chain: not shown
notes: REEP5 was fused to a V5 tag followed by a 6xHis tag; source: HEK293, transfected, in lysate

Tests used:
[1] = biological target: the molecule itself; experiment: immunoblot of oligomer bands after SDS-PAGE; C2C12 myoblasts transfected with EYFP tagged REEP5 and truncation mutants; SDS-resistant dimers
[2] = biological target: the molecule itself; experiment: immunoblot of oligomer bands after SDS-PAGE; lysates and nickel-His eluate of transfected HEK293 cells; increasing DTT lowered the dimer band

| Protein | stoichiometry N [1] | stoichiometry N [2] |
| --- | --- | --- |
| B1 | 2 |  |
| B2 |  | 2 |
| B3 | 2 |  |
| B4 |  | 2 |
| B5 |  | 2 |
